Molecular target: OsCCA1 DNA-binding (R/MYB) domain (Oryza sativa (cDNA of Heidao), UniProt A0A0P0XBU0 1-138)
Experiment: EMSA; EMSA: 10 uL with 2 uL 5x binding buffer (Invitrogen), 1.3 ug protein, 20 pmol probe, 23 C, 20 min; 10% native PAGE, 100 V about 70 min; gel stained for DNA and
Details: protein: recombinant; (pCold vector, Ni Sepharose)

Sequence of OsCCA1 DNA-binding (R/MYB) domain (A0A0P0XBU0 1-138): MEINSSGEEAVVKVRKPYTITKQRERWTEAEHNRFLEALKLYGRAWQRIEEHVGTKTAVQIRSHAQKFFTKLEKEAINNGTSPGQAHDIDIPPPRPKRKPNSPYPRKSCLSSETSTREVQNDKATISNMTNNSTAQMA

B1: OsPRR1-p1 (EE probe) (dsDNA)
DNA 1: GTAGGGGGAGGAAAATATCCTGTGCCAGTAG
DNA 2: CTACTGGCACAGGATATTTTCCTCCCCCTAC
Question: Does B1 bind?
Answer: binds

B2: OsPRR1-p2 (EE probe) (dsDNA)
DNA 1: GTTTCGTTTATTACACCGCCCCGG
DNA 2: CCGGGGCGGTGTAATAAACGAAAC
Question: Does B2 bind?
Answer: binds

B3: OsPRR1-p3 (EE probe) (dsDNA)
DNA 1: CATCTGGCTTAACCACGCCCGGCTCTC
DNA 2: GAGAGCCGGGCGTGGTTAAGCCAGATG
Question: Does B3 bind?
Answer: binds

B4: probe 9 (OsPRR1_a, 12-nt deletion) (dsDNA)
DNA 1: CCAACGCCGCCGCCGC
DNA 2: GCGGCGGCGGCGTTGG
Question: Does B4 bind?
Answer: no binding

Reference: PMC10671530, “Linking New Alleles at the Oscillator Loci to Flowering and Expansion of Asian Rice”
